Experimental data from patent US20140369940A1 (Biogen, published 2014).
Ends that are not written are not given here.

B1: recombinant human monoclonal antibody NI-202.12F4 (antibody, V domains shown)
VH: EVQLVQSGGGLVEPGGSLRLSCAVSGFDFEKAWMSWVRQAPGQGLQWVARIKSTADGGTTSYAAPVEGRFIISRDDSRNMLYLQMNSLKTEDTAVYYCTSAHWGQGTLVTVSS
VL: QSVLTQPPSVSVSPGQTARITCSGEALPMQFAHWYQQRPGKAPVIVVYKDSERPSGVPERFSGSSSGTTATLTITGVQAEDEADYYCQSPDSTNTYEVFGGGTKLTVL
notes: Lambda light chain; HEK293 or CHO conditioned medium
B2: recombinant human monoclonal antibody NI-202.21D11 (antibody, V domains shown)
VH: EVQLVESGAEVKKPGASVKVSCKASGYTFTNYAMHWVRQAPGQRLEWMGWINAGNGKRKYSQKFQDRVTINRDTSASTIYMELSSLGSEDTAVYYCAREEDHAGSGSYLSMDVWGQGTLVTVSS
VL: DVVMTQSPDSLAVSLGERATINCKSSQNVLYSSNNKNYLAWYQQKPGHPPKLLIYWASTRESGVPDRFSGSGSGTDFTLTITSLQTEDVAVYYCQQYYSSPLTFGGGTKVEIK
notes: Expressed recombinantly in HEK293 or CHO cells as a complete antibody (methods: human IgG1 or chimeric mouse IgG2a constant regions); conditioned medium used directly unless otherwise stated

Legend:
[1] = biological target: T1, recombinant human β-synuclein (wt) (human, UniProt Q16143 1-134); test: direct ELISA
T1 construct: also called wt β-synuclein

[2] = biological target: T2, human α-synuclein pepscan peptide A02 (residues 5-20) (human, also: C-terminally coupled via flexible linker to cellulose membrane); test: pepscan, immunoblotting
T2 construct: Printed as residues 5-20, although a 15-mer with 11 residues overlap to A01 would be 5-19
T2 peptide: MKGLSKAKEGVVAAAE
Experimental: A membrane that comprises a total of 33 peptides was rinsed in methanol and then blocked with Rotiblock (Roth, Karlsruhe, Germany). The membrane was incubated with indicated antibodies diluted in blocking solution and then with horse radish peroxidase (HRP)-labeled secondary antibody for 1 hr. Between incubations the membrane was washed 3× with PBS-T for 5 min. The membrane was then developed using ECL plus Western Blotting Detection Reagents (GE Healthcare).
Adjacent peptides share an overlap of 11 residues and peptides were C-terminally spotted to a cellulose support membrane.

[3] = biological target: T3, synthetic biotinylated α-synuclein peptide 5-30 (human, biotinylated (position not given)); test: in-solution ELISA, antibody coated at 2 µg/ml, biotinylated peptide
T3 construct: also called α-synuclein 5-30

[4] = biological target: recombinant α-synuclein truncation aa 1-60 (human, UniProt P37840 1-60); test: direct ELISA

T1 sequence (Q16143 whole entry): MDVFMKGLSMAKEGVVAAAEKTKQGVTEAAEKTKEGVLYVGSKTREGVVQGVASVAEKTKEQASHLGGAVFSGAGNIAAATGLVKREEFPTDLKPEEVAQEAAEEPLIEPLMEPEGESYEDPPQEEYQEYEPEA

Binder	binding result [1]	binding result [2]	binding result [3]	binding result [4]
B1	no binding	no binding	no binding	
B2				no binding (tested: coated at 2 ug/ml)
